Data on one protein can be found in paper PMC10256678, “Structural mechanism of intracellular autoregulation of zinc uptake in ZIP transporters” (Nature Communications, 2023).

The data set concerns the molecule itself. Description: cryo-EM structure; BbZIP in amphipol PMAL-C8 nanoparticles, purified with Cd2+, 20 mM HEPES pH 7.5, 100 mM NaCl; C2 symmetry, 3.05 Å (C1: 3.3 Å).

B1: ZIP-family zinc transporter from Bordetella bronchiseptica (BbZIP) (natural protein, UniProt A0A0H3LM39 1-309, looked up)
chain: MNQPSSLAADLRGAWHAQAQSHPLITLGLAASAAGVVLLLVAGIVNALTGENRVHVGYAVLGGAAGFAATALGALMALGLRAISARTQDAMLGFAAGMMLAASAFSLILPGLDAAGTIVGPGPAAAAVVALGLGLGVLLMLGLDYFTPHEHERTGHQGPEAARVNRVWLFVLTIILHNLPEGMAIGVSFATGDLRIGLPLTSAIAIQDVPEGLAVALALRAVGLPIGRAVLVAVASGLMEPLGALVGVGISSGFALAYPISMGLAAGAMIFVVSHEVIPETHRNGHETTATVGLMAGFALMMFLDTALG
notes: Zrt-/Irt-like protein (ZIP) zinc transporter of Bordetella bronchiseptica, full length gene synthesized and cloned into pET15b; molecular weight 31 kDa; Membrane protein; purified with Cd2+ (CdCl2) present; three Cd2+ ions per protomer and two phosphatidylethanolamine lipids at the dimer in the cryo-EM structure; also called WT BbZIP; source: E. coli C43 (DE3), purified (Ni-NTA, thrombin …)
B1: the “stoichiometry N” value worked out at 2.

What is called stoichiometry N is a count of units in the complex or per binding partner.
